{"source": "patent US12371725", "system": "Cre recombinase (Bacteriophage P1?)", "test": "cleavage_in_vitro", "conditions": "73 nM Cre, 37 C, 30 min; approximate value; ethidium bromide inhibits"}
{"substance": "pLoxFL BamHI digest (linear, two loxP sites)", "values": [{"measurement": "activity (% recombination)", "value": 74}]}
